Publication PMC8517284 (EBioMedicine, 2021)

Molecular target: human integrin αvβ3 (R&D Systems, 3050-AV-050) (human, UniProt P06756 31-1048; P05106 27-718)
Experiment: SPR

B1: GFP-tagged full-length recombinant human D3 (1-304 aa), D3^FL (enzyme)
chain: MPRQATSRLVVGEGEGSQGASGPAATMLRSLLLHSLRLCAQTASCLVLFPRFLGTAFMLWLLDFLCIRKHFLGRRRRGQPEPEVELNSEGEEVPPDDPPICVSDDNRLCTLASLKAVWHGQKLDFFKQAHEGGPAPNSEVVLPDGFQSQHILDYAQGNRPLVLNFGSCTCPPFMARMSAFQRLVTKYQRDVDFLIIYIEEAHPSDGWVTTDSPYIIPQHRSLEDRVSAARVLQQGAPGCALVLDTMANSSSSAYGAYFERLYVIQSGTIMYQGGRGPDGYQVSELRTWLERYDEQLHGARPRRV
Question: Which Kd does the source give for B1 here?
Answer: 2110 nM
